Our source for the BLI response values is PMC7473855.

This assay addresses Ty1 nanobody, biotinylated on the C-terminus (alpaca). As to the kind of experiment: BLI; comparative binding test; biotinylated nanobody on streptavidin (SAX) biosensors at about 0.7 nm, dipped into monomeric RBD at 550 nM; 2xPBS with 0.05% Tween-20; Octet RED. (Biolayer interferometry detects binding as a change in optical thickness at a sensor tip.)

Sequence of Ty1 nanobody, biotinylated on the C-terminus (alpaca) (VHH, as listed by the source): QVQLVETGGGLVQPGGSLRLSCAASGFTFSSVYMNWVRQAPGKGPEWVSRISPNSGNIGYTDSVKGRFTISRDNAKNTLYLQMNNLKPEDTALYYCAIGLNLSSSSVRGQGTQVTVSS

As for “SARS-CoV-2 spike receptor-binding domain (RBD) (from UniProt P0DTC2 319-541) (domain or fragment)”, the BLI response at 550 nM RBD stood at 1.5 nm.
